Experiment [1] addresses PrgL_(32-208)-His, soluble C-terminal NTF2-like domain of PrgL (Enterococcus faecalis (plasmid pCF10)). The experiment is described as follows: SEC-MALS. (SEC sorts molecules by how far they enter the pores of the column.)
The target is the same in experiment [2]. The experiment is described as follows: SEC-MALS. The source holds these as a separate data set.
The target in experiment [3] is full-length PrgL-GFP (Enterococcus faecalis (plasmid pCF10)). Description: SEC.
In experiment [4] the target is full-length PrgL-His (Enterococcus faecalis (plasmid pCF10)). Description: cross-linking.

Where two headings read alike, the source gives them in different places.

Broadly, the stoichiometry N is a count of units in the complex or per binding partner. For “PrgL_(32-208)-His, soluble C-terminal NTF2-like domain of PrgL (domain or fragment)”, the stoichiometry N in experiment [1] was 2; in experiment [2], 10 to 12. full-length PrgL-GFP (natural protein) showed a stoichiometry N in experiment [3] of 2. For full-length PrgL-His (natural protein), the stoichiometry N in experiment [4] is 2.

Values taken from publication doi:10.1101/2020.10.30.342212.
